These results are taken from US20100048604A1, “Ligands for Aldoketoreductases” (priority 2004, published 2010).

Data set [1] has as its target T1, Thermoanaerobium brockii alcohol dehydrogenase (TBAD) (Thermoanaerobacter brockii, UniProt P14941).
T1 construct: purchased Sigma (St. Louis, Mo.) Lot Number 033K4093 (catalogue number not given)
T1 sequence (P14941 1-352): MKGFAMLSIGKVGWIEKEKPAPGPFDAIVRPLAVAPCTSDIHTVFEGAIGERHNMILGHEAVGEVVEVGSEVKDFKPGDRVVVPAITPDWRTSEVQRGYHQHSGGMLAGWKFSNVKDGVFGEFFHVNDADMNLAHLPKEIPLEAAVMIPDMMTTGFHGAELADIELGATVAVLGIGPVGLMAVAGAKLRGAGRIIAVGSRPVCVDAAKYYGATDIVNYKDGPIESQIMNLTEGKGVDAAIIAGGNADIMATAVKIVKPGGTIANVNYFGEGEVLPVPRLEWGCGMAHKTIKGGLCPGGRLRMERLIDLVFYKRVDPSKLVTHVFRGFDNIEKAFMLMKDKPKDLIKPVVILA
In words: Enzymatic screening of probes 1-7 against a panel of oxidoreductases. The data set is classed as biochemical. The settings on record: 12 hour incubation, 30-50 μM substrate, pH 7, 250 μM NAD(P)H. The method, then:
(§1) FIG. 4. Screening of probes 1-7 against a panel of oxidoreductases Percentage fluorescence increase after 12 hour incubation of 30-50 μM substrate, 100 mM phosphate buffer (pH 7), 250 μM NAD(P)H, and 100 nM enzyme. Substrates 1, 2, 3, and 4 monitored at λexc=340 nm, λem=440 nm. Substrates 5, 6, and 7 monitored at λexc=440 nm, λem=510 nm. 3HSD, 3α-hydroxysteroid dehydrogenase (PT, Pseudomonas testosteroni), HLAD, horse liver alcohol dehydrogenase, TBAD, Thermoanaerobium brockii alcohol dehydrogenase, BS 12HSD, Bacillus sp. 12α-hydroxysteroid dehydrogenase, ABAD, amyloid-β binding alcohol dehydrogenase (human), GDH, glycerol dehydrogenase, YADH, yeast alcohol dehydrogenase, LDH, lactate dehydrogenase.
(§2) Probes 1-7 (see FIG. 3) were subsequently tested against a collection of dehydrogenases in the presence of NAD(P)H; the extent of reduction was assessed by the measurement of fluorescence intensity at the emission maximum of each probe (FIG. 4). This assay included enzymes from two major oxidoreductase superfamilies, the short chain alcohol dehydrogenases (SDR) and the aldo-keto reductases (AKR), ranging from bacterial to mammalian and human enzymes.
(§3) Horse Liver alcohol dehydrogenase (Lot Number 51K7520), Thermoanaerobium brockii NADP^+ dependent alcohol dehydrogenase (Lot Number 033K4093), Pseudomonas testosteroni 3α-hydroxysteroid dehydrogenase (Lot Number 053K8624), and Bacillus sphaericus 12α-hydroxysteroid dehydrogenase (Lot Number 70K16621) were purchased from Sigma (St. Louis, Mo.). Yeast alcohol dehydrogenase (Lot Number 93122920), glycerol dehydrogenase (Lot Number 92110122), (D)-lactate dehydrogenase (Lot Number 92419236), (L)-lactate dehydrogenase (Lot Number 92801821), NAD^+, NADP^+, NADH, and NADPH were purchased from Roche. Enzyme activity was confirmed by compliance to supplier's quality control assays prior to usage. Rat and human 3α-hydroxysteroid dehydrogenases were provided by Professor Trevor Penning (University of Pennsylvania School of Medicine) and human amyloid-β peptide binding alcohol dehydrogenase was supplied by Professor Shi Du Yan (Columbia University School for Physicians and Surgeons).
(§4) Enzymatic assays were performed in triplicate on selected fluorogenic substrates according to the following protocol. To each well of a FALCON 96-well black flat bottom plate was added (1) 40 μL of 500 mM potassium phosphate buffer pH 7.0, (2) 113 μL of double deionized water, (3) 25 μL of 2 mM NADH (except for Pseudomonas testosteroni 3α-hydroxysteroid dehydrogenase, rat 3α-hydroxysteroid dehydrogenase, and Thermoanaerobium brockii NADP^+ dependent alcohol dehydrogenase, in which cases 2 mM of NADPH was used), (4) 2 μL of a 3-5 mM solution of substrate in DMSO, and (5) 20 μL of a 40-50 μg/mL solution of enzyme. Reaction volumes were mixed thoroughly after addition of cofactor, substrate, and enzyme and allowed to react 12 hours at 25° C. Scanning of the 96-well plate was performed by the MicroMax 384 connected to a Jobin Yvon Fluorolog through F-3000 fiber optic cables.
(§5) Initial Screening with Fluorogenic Substrates: Screening of the first fluorogenic substrates for enzymatic activity has been described above. In short, 200 μL enzymatic assay volumes containing 100 mM potassium phosphate buffer (pH 7), 250 μM NAD(P)H cofactor, and 30-50 μM of ketones (1-7) were incubated for 12 hours on a black FALCON 96-well plate. Formation of the alcohol reduction product was determined by reading the fluorescence arising from excitation at the corresponding alcohol at either 340 nm (27-30) or 440 nm (31-33).

Data set [2] concerns the target T2, horse liver alcohol dehydrogenase (HLAD) (Equus caballus, UniProt P00327).
T2 construct: purchased Sigma (St. Louis, Mo.) Lot Number 51K7520 (catalogue number not given)
The description is as above. The data set is classed as biochemical. The conditions noted are these: 12 hour incubation, 30-50 μM substrate, pH 7, 250 μM NAD(P)H. On the procedure: as §1, §2, §3, §4, §5

The subject of the next data set is AKR1C1-AKR1C4. In words: Substrate tolerance and selectivity across the four human AKR1C isozymes. The data set is classed as biochemical. The conditions noted are these: AKR1C1-AKR1C4, purified enzymes, NADPH. From the text: (§6) AKR1C2 and AKR1C3 Selective Probes: Probes (5a-5i) were examined as substrates for the four purified human HSD isozymes (AKR1C1-AKR1C4) under standard assay conditions [catalytic quantities of enzyme, an excess of cofactor (NADPH)]. The initial reaction rates were used to derive standard kinetic parameters (kcat and Km, Materials and Methods).
(§7) Substrate tolerance of AKR1Cs: Isozyme Activity with 5a-5i: Activity of the second generation of fluorogenic substrates with the AKR1C isozymes was determined as follows. To a STARNA semi-micro fluorimeter cell (with 4 polished windows) was added 100 μL of 1 M potassium phosphate buffer (pH 6), 840 μL doubly deionized water, and 20 μL of 12.5 mM NADPH. After mixing the aqueous components thoroughly, 20 μL of acetonitrile was added as a cosolvent and mixed well. 20 μL of 2.5 mM second generation fluorogenic ketone in acetonitrile (5a-5i) was then added and mixed. 4 μL of undiluted AKR1C (provided generously by the Penning lab at concentrations of 2.5 mg/mL) were then added to the cuvette for a total of 10 μg purified enzyme in the 1 mL assay volume. Fluorescence arising from the respective alcohol reduction product was then monitored over the course of 5-10 minutes.
Binding constant and catalytic rates (Km and kcat) of the second generation of fluorogenic substrates was determined as follows. To a STARNA semi-micro fluorometer cell (with 4 polished windows) was added 100 μL of 1 M potassium phosphate buffer (pH 6), 840 μL doubly deionized water, and 20 AL of 12.5 mM NADPH. After mixing the aqueous components thoroughly, 20 μL of acetonitrile was added as a cosolvent and mixed well. […] Fluorescence arising from the respective alcohol reduction product was then monitored over the course of 3 minutes (Excitation and emission band pass slits both at 4 nm, lamp 700 V, λexc 410 nm, λem 510). The rate of product formation, expressed in units of nanomoles per minute, were calculated according to previously published procedures (Wierzchowski, J.; Dafeldecker, W. P.; Holmquist, B.; Vallee, B. L. Anal. Biochem. 1989, 178, 57-62): […]

Substrate in data set [3]: O=C(c1ccccc1)c1cc(=O)oc2c3c4c(cc12)CCCN4CCC3
Nature of the data set: Steady state kinetic parameters of fluorogenic substrates with purified AKR1C isozymes. The settings on record: other: isozyme 1C1, potassium phosphate buffer pH 6, NADPH, fluorimetric. The data set is classed as biochemical, human.
Text: as §6, §7
(§8) Binding constant and catalytic rates (Km and kcat) of the second generation of fluorogenic substrates was determined as follows. To a STARNA semi-micro fluorometer cell (with 4 polished windows) was added 100 μL of 1 M potassium phosphate buffer (pH 6), 840 μL doubly deionized water, and 20 AL of 12.5 mM NADPH. After mixing the aqueous components thoroughly, 20 μL of acetonitrile was added as a cosolvent and mixed well. 20 μL of the second generation fluorogenic ketone (5a-5i) was then added and mixed to achieve assay concentrations of 5Km to Km/5. To initiate the reduction, 2 or 4 μL of diluted AKR1C (1:2 to 1:100, depending on the kinetics of a particular isozyme's reduction of a substrate) was then added to the cuvette. Fluorescence arising from the respective alcohol reduction product was then monitored over the course of 3 minutes (Excitation and emission band pass slits both at 4 nm, lamp 700 V, λexc 410 nm, λem 510). The rate of product formation, expressed in units of nanomoles per minute, were calculated according to previously published procedures (Wierzchowski, J.; Dafeldecker, W. P.; Holmquist, B.; Vallee, B. L. Anal. Biochem. 1989, 178, 57-62):
(§9) initial rate=[nst×(Ft−F0)/(Fst)]/t (1)
(§10) where Ft and F0 represent the fluorescence at times t and 0 minutes, nst is the nanomoles of product in a known concentration of product, and Fst is the fluorescence resulting from nst of product. Kinetic parameters were approximated by GraFit (Erithacus Software, Surrey, UK) nonlinear regression analysis program to fit the untransformed data to a hyperbolic function as originally described (Wierzchowski, J.; Dafeldecker, W. P.; Holmquist, B.; Vallee, B. L. Anal. Biochem. 1989, 178, 57-62). Reported enzymatic kinetic parameters are the average of three independent determinations from three different preparations of substrate and enzyme.

Substrate in data set [4]: O=C1CCc2c1c1cc3c4c(c1oc2=O)CCCN4CCC3
The description is as above. The conditions noted are these: other: isozyme 1C1, potassium phosphate buffer pH 6, NADPH, fluorimetric. The data set is classed as biochemical, human.
Text: as §6, §7, §8, §9, §10

Substrate in data set [5]: CC(=O)c1cc(=O)oc2c3c4c(cc12)CCCN4CCC3
Described as above. The data set is classed as biochemical, human. The conditions noted are these: other: isozyme 1C1, potassium phosphate buffer pH 6, NADPH, fluorimetric.
Text: as §6, §7, §8, §9, §10

Substrate in data set [6]: CC(=O)c1cc(=O)oc2cc(N(C)C)ccc12
The description is as above. The data set is classed as biochemical, human. The settings on record: other: isozyme 1C1, potassium phosphate buffer pH 6, NADPH, fluorimetric.
Text: as §6, §7, §8, §9, §10

Substrate in data set [7]: CC(=O)c1cc(=O)oc2c3c(ccc12)NCCC3
Described as above. Format: biochemical, human. The settings on record: other: isozyme 1C1, potassium phosphate buffer pH 6, NADPH, fluorimetric.
Text: as §6, §7, §8, §9, §10

T2 sequence (P00327 2-375 limits assumed): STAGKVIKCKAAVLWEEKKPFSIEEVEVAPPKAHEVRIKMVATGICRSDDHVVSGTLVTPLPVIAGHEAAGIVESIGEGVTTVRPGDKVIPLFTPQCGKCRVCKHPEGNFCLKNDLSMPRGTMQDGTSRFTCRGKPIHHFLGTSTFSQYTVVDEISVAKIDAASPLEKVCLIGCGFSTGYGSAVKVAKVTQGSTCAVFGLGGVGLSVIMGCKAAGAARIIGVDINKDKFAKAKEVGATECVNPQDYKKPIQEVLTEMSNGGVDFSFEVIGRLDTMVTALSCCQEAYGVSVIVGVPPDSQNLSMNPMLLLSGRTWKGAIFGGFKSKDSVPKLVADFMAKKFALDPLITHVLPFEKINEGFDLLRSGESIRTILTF

With `CC(=O)C#Cc1cc2cc3c4c(c2oc1=O)CCCN4CCC3` [compound 7, 9-(3-Oxo-but-1-ynyl)-2,3,5,6-tetrahydro-1H,4H-11-oxa-3a-aza-benzo[de]anthracen-10-one], the “reduction of probe (fluorescence increase)” value in data set [1] and in data set [2] was “catalyzed reduction” throughout.

On to `CC(=O)c1c(Br)c(=O)oc2c3c4c(cc12)CCCN4CCC3` [5e, 8-Acetyl-9-bromo-2,3,5,6-tetrahydro-1H,4H-11-oxa-3a-aza-benzo[de]anthracen-10-one], for which the “acceptance as substrate by the four human isozymes” value in the data set on AKR1C1-AKR1C4 is recorded as “not accepted as substrates by any of the tested 3a-HSD enzymes”.

For the molecule `CC(=O)c1c(-c2ccccc2)c(=O)oc2c3c4c(cc12)CCCN4CCC3` [5f, 8-Acetyl-9-phenyl-2,3,5,6-tetrahydro-1H,4H-11-oxa-3a-aza-benzo[de]anthracen-10-one], the “acceptance as substrate by the four human isozymes” value with AKR1C1-AKR1C4 is reported as “not accepted as substrates by any of the tested 3a-HSD enzymes”.

Regarding `COc1ccc2cc(C#CC(C)=O)c(=O)oc2c1` [compound 4, 7-Methoxy-3-(3-oxo-but-1-ynyl)-coumarin], the “reduction of probe (fluorescence increase)” value in data set [1] and in data set [2] was “catalyzed reduction” each time.

B1: AKR1C1 (Homo sapiens) (protein)
chain: MDSKYQCVKLNDGHFMPVLGFGTYAPAEVPKSKALEATKLAIEAGFRHIDSAHLYNNEEQVGLAIRSKIADGSVKREDIFYTSKLWCNSHRPELVRPALERSLKNLQLDYVDLYLIHFPVSVKPGEEVIPKDENGKILFDTVDLCATWEAVEKCKDAGLAKSIGVSNFNRRQLEMILNKPGLKYKPVCNQVECHPYFNQRKLLDFCKSKDIVLVAYSALGSHREEPWVDPNSPVLLEDPVLCALAKKHKRTPALIALRYQLQRGVVVLAKSYNEQRIRQNVQVFEFQLTSEEMKAIDGLNRNVRYLTLDIFAGPPNYPFSDEY
notes: gift of the Penning lab (University of Pennsylvania School of Medicine)
The kcat is the number of substrate molecules converted per active site and unit of time at saturation. Take B1: the Km in data set [3] is listed as 5.5 ± 0.7 3.0 ± 0.2 0.051 ± 0.005 6.2 ± 0.7 μM; in data set [4], 4.0 ± 0.6 4.5 ± 0.6 0.13 μM; in data set [5], 24.4 ± 2.3 7.3 ± 0.4 1.1 ± 0.1 20.6 ± 1.9 μM; in data set [6], 21.0 ± 1.3 7.2 ± 0.6 4.3 ± 0.3 14.8 ± 0.9 μM; in data set [7] it was 35.3 ± 2.9 4.8 ± 0.3 8.3 ± 0.9 40.2 ± 3.4 μM. Also, the kcat in data set [3] was 0.025 s⁻¹; in data set [4] it was 1.6 0.40 7.2 no activity; in data set [5], 0.0183 s⁻¹; in data set [6], 0.0333 s⁻¹; in data set [7], 0.11 s⁻¹. The kcat/Km was 0.27 7.8 106 0.10 min^−1 μM^−1 in data set [3]; 0.39 0.08 56 min^−1 μM^−1 in data set [4]; 0.046 2.1 6.9 0.020 min^−1 μM^−1 in data set [5]; 0.10 3.0 2.1 0.14 min^−1 μM^−1 in data set [6]; 0.19 6.0 0.84 0.036 min^−1 μM^−1 in data set [7].
